In PMC6366944 (Cell, 2018):

Experiments:
[1] = molecular target: T1, EBOV VP30 C-terminal domain, residues 130-272 (Zaire ebolavirus, UniProt Q05323 130-272); experiment: fluorescence polarisation
T1 sequence: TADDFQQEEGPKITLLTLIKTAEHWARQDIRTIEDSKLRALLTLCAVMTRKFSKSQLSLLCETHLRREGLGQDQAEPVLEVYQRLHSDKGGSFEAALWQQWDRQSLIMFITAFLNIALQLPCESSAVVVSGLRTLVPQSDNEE

[2] = molecular target: T1, EBOV VP30 C-terminal domain, residues …; experiment: ITC
[3] = molecular target: T2, EBOV VP30 residues 89-288 (in vitro pull-down) (Zaire ebolavirus, UniProt Q05323 89-288); experiment: pull-down
T2 sequence: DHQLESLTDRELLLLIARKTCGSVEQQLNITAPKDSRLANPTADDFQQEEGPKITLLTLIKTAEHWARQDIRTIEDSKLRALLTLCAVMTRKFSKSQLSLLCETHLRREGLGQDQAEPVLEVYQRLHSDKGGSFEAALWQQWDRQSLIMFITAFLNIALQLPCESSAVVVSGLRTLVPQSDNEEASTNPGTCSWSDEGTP

## RTPTVAPPAPVYRDHS [unlabeled NP peptide]
[1]
  Kd: 89.2 ± 2.26 µM

## SLPATPVFVPVPPPPLYPPPPHT [RBBP6 peptide, residues 549-571]
[2]
  Kd: 0.75 ± 0.095 µM
  stoichiometry N: 1
[1]
  Kd: 18.1 ± 0.41 µM

## SLPATPVFVPVPPPPLYPPPPHTLP [MBP fusion of RBBP6 residues 549-573]
[3]
  binding result: binds
